Test results from paper PMC10119177 (2023).

Target: recombinant IgI3 domain of the S. pyogenes R28 protein (R28-IgI3), wildtype (S. pyogenes) (UniProt Q9XDB6)
Experiment: ITC; iTC200, 25 °C, 16 injections of 2.42 µl, 30 mM Tris-HCl, 150 mM NaCl, pH 7.5, 750 rpm, in duplicate; 500 µM rCEACAM-N domains in the syringe, 50 µM rR28-IgI3 (methods)

Row | Substance | Kd
1 | rCEACAM1-N N97A (from UniProt P13688 34-141) (domain or fragment) | 210 nM
2 | rCEACAM1-N Q44A (from UniProt P13688 34-141) (domain or fragment) | 920 nM
3 | rCEACAM1-N Q89A (from UniProt P13688 34-141) (domain or fragment) | 687 nM
4 | rCEACAM1-N V96A (from UniProt P13688 34-141) (domain or fragment) | 116 nM
